Measurements published in US20190330337A1, “Tunable Chimeric Antigen Receptors” (AUTOLUS LIMITED, priority 2016, published 2019).
Entries after “also recorded” stand apart in the source; their conditions may differ. Blank lines part the entries; values can stand above or below the molecule they belong to.

Key:
[1] = tested on: SupT1 cells engineered to express CD33; assay: Activation of TetCAR BW5 T-cells challenged with SupT1 cells expressing CD33; assay type: cell-based
Description: A bicistronic construct was expressed in BW5 T cells as a single transcript which self-cleaves at the 2A site to yield a signalling component which comprises TiP fused via a flexible linker to the endodomain of CD3-Zeta; and a receptor component which comprises a CD33 recognizing scFv, a spacer derived from the Fc domain of IgG1, a CD4 derived transmembrane and intracellular domain; and TetR (FIG. 19a). A control was also expressed which was identical except that TiP was absent from the signalling component (FIG. 19b).
The BW5 T-cells were challenged with wild-type SupT1 cells or SupT1 cells engineered to express CD33 in the absence of tetracycline or in the presence of increasing concentrations of tetracycline.
Control TetCAR which lacks the TiP domain was also transduced into BW5. Once again, these T-cells were challenged with wild-type SupT1 cells or SupT1 cells engineered to express CD33 in the absence or in the presence of increasing concentration of Tetracycline.

streptavidin = streptavidin (Streptomyces avidinii, UniProt P22629); settings: biotin mimicking peptide binding streptavidin; read-out: affinity; cited from earlier work
Chain of streptavidin (P22629 37-163 limits assumed): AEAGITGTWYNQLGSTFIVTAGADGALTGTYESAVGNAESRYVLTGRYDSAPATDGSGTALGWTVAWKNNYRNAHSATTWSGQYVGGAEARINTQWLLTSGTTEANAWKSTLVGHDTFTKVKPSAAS

CD19 (human) = CD19 (human) (UniProt P15391); assay: SPR (Biacore T200), scFv-Fc captured on anti-IgG CM5 chip, interaction partner protein injected, 1:1 Langmuir fit
Chain of CD19 (human) (P15391 20-291 limits assumed): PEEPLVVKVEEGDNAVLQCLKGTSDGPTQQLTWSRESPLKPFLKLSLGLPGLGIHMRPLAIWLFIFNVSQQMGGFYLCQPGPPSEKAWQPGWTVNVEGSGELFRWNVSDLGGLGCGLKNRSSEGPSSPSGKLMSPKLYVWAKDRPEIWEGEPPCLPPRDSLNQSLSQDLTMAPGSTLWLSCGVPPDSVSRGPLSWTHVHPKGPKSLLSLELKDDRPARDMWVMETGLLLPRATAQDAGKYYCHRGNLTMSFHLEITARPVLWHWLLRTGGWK

CD22 [2] = target: T1, CD22 (Homo sapiens, UniProt P20273); assay: Biacore affinity determination of CD22 binders; assay type: binding; settings: scFv format, FIG. 6, result in words
Protocol: A CD19-binder (CD19ALAb) was identified, humanised and the binding affinities of both murine and humanised IgGs and scFvs were identified and compared with the “gold-standard” anti-CD19 binder, fmc63. In parallel, and a CD22-binder (CD22ALAb) was identified, humanised and the binding affinities of both murine and humanised IgGs and scFvs were identified and compared with the “gold-standard” anti-CD22 binder, M971.
Experiments were performed on a Biacore T200 instrument using HBS-P as running and dilution buffer. BIAevaluation software Version 2.0 was used for data processing. For binding kinetics, mouse anti-human IgG or goat anti-mouse IgG was covalently coupled to a CM5 Sensor Chip. IgG or scFv-Fc proteins were captured, and various concentrations of interaction partner protein injected over the flow cell at a flow rate of 30 μl/min. Kinetic rate constants were obtained by curve fitting according to a 1:1 Langmuir binding model. Bulk refractive index differences were subtracted using a blank control flow cell in which capture antibody had been immobilized to the same level as the active surface. A double reference subtraction was performed using buffer alone.

CD22 [3] = target: T1, CD22; assay: SPR (Biacore T200), scFv-Fc captured on anti-IgG CM5 chip, interaction partner protein injected, 1:1 Langmuir fit

Molecule: CN(C)[C@@H]1C(O)=C(C(N)=O)C(=O)[C@@]2(O)C(O)=C3C(=O)c4c(O)cccc4[C@@](C)(O)[C@H]3C[C@@H]12 [tetracycline, reference compound]
concentration of tetracycline at which activation is fully inhibited [1]: 100 nM

Molecule: Biotin mimicking peptide CHPQGPPC (SEQ ID NO: 35) (Biotin mimicking peptide, ccstreptag)
Kd (streptavidin): 230 nM

Molecule: Biotin mimicking peptide DVEAWLDERVPLVET (SEQ ID NO: 30) (Biotin mimicking peptide, long nanotag)
Kd (streptavidin): 3.6 nM

Molecule: Biotin mimicking peptide WRHPQFGG (SEQ ID NO: 32) (Biotin mimicking peptide, streptag)
Kd (streptavidin): 72000 nM

Molecule: Biotin mimicking peptide DVEAWLGAR (SEQ ID NO: 31) (Biotin mimicking peptide, short nanotag)
Kd (streptavidin): 17 nM

Kd (CD19 (human)): 1.85 nM
koff (CD19 (human)): 0.000328 s⁻¹
kon (CD19 (human)): 178000 M⁻¹ s⁻¹
B1: Murine CD19ALAb scFv (scFv, part only; not given: Fc part and VH-VL linker, not shown: another chain or arm of the molecule; a dimerising Fc or GST; small tags and cut ends)
scFv: QVQLQQSGAELVRPGSSVKISCKASGYAFSSYWMNWVKQRPGQGLEWIGQIWPGDGDTNYNGKFKGKATLTADESSSTAYMQLSSLASEDSAVYFCARRETTTVGRYYYAMDYWGQGTTVTVSSDIQLTQSPASLAVSLGQRATISCKASQSVDYDGDSYLNWYQQIPGQPPKLLIYDASNLVSGIPPRFSGSGSGTDFTLNIHPVEKVDAATYHCQQSTEDPWTFGGGTKLEIK

B2: murine CD22ALAb: Murine CD22ALAb scFv, SEQ ID No. 25 (protein)
scFv: QVQLQQPGAELVRPGASVKLSCKASGYTFTNYWINWVKQRPGQGLEWIGNIYPSDSFTNYNQKFKDKATLTVDKSSSTAYMQLSSPTSEDSAVYYCTRDTQERSWYFDVWGAGTTVTVSSDVVMTQTPLSLPVSLGDQASISCRSSQSLVHSNGNTYLHWYLQKPGQSPKLLIYKVSNRFSGVPDRFSGSGSGTDFTLKISRVEAEDLGLYFCSQSTHVPWTFGGGTKLEIK
modifications: CAR, Murine CD22ALAb scFv sequence
binding affinity to CD22 (CD22 [2]): significantly higher binding affinity to CD22 than the gold-standard CD22-binding antibody, M971

Kd (CD22 [3]): 32 nM
koff (CD22 [3]): 0.00226 s⁻¹
kon (CD22 [3]): 68300 M⁻¹ s⁻¹
B3: Humanised CD22ALAb scFv (scFv, part only; not given: Fc part and VH-VL linker, not shown: another chain or arm of the molecule; a dimerising Fc or GST; small tags and cut ends)
scFv: EVQLVESGAEVKKPGSSVKVSCKASGYTFTNYWINWVRQAPGQGLEWIGNIYPSDSFTNYNQKFKDRATLTVDKSTSTAYLELRNLRSDDTAVYYCTRDTQERSWYFDVWGQGTLVTVSSDIVMTQSPATLSVSPGERATLSCRSSQSLVHSNGNTYLHWYQQKPGQAPRLLIYKVSNRFSGVPARFSGSGSGVEFTLTISSLQSEDFAVYYCSQSTHVPWTFGQGTRLEIK

B4: humanised CD22ALAb: Humanised CD22ALAb scFv, SEQ ID No. 26 (protein)
scFv: B3 scFv
modifications: CAR, Humanised CD22ALAb scFv sequence
binding affinity to CD22 (CD22 [2]): comparable binding affinity to CD22 to murine CD22ALAb; also recorded: significantly higher binding affinity to CD22 than the gold-standard CD22-binding antibody, M971
